Source: patent US20090318341A1
Where two headings read alike, the source gives them in different places. Ends that are not written are not given here.

B1: ShK[2-35] synthetic peptide analog (peptide)
peptide: SCIDTIPKSRCTAFQCKHSMKYRLSFCRKTCGTC
modifications: not fully specified; ends and bridges not checked

Legend:
Assay in all cases: cell-based or functional assay
[1] = target: human Kv1.1 channel (human) (UniProt Q09470)
[2] = target: human Kv1.3 channel (human) (UniProt P22001)
[3] = target: human Kv1.3 voltage-gated potassium channel (human) (UniProt P22001)
[4] = target: human Kv1.3 channel (human) (UniProt P22001); remark: listed apart in the source

human Kv1.3 voltage-gated potassium channel (human), sequence (P22001 whole entry): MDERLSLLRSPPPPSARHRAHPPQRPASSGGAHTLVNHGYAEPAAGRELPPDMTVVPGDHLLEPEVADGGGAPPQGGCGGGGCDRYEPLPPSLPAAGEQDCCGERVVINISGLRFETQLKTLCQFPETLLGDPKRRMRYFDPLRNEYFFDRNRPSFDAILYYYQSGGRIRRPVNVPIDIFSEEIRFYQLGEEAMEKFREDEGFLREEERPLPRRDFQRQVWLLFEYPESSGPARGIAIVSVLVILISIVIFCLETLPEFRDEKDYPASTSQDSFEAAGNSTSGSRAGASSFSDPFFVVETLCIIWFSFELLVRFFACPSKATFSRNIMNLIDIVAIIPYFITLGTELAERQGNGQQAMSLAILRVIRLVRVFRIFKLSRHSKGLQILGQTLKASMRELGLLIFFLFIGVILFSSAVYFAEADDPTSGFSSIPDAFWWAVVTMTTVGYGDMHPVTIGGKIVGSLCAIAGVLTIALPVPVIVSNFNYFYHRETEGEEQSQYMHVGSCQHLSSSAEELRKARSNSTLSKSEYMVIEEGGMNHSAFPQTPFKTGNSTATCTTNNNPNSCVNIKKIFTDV
human Kv1.3 channel (human), sequence (P22001 whole entry): as above
human Kv1.1 channel (human), sequence (Q09470 whole entry): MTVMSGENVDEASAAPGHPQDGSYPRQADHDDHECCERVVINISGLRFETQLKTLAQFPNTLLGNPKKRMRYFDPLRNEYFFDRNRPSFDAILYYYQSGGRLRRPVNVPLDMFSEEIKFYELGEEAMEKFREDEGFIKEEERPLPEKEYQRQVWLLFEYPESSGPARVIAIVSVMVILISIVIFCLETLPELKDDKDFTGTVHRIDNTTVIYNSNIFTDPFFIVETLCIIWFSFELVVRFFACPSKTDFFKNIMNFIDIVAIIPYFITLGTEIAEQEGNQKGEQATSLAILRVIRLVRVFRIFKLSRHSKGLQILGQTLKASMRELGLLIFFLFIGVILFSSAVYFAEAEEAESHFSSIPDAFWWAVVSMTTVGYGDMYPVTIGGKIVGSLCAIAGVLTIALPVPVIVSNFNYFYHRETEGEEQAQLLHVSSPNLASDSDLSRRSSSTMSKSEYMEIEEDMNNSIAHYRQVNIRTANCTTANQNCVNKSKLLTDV

Molecule	IC50 of block of the outward potassium current, whole cell patch clamp [2]	WB/IFNg (IC50, nM), human whole blood assay [3]	WB/IL-2 (IC50, nM), human whole blood assay [3]	further results
Synthetic OSK1 (peptide)	–	–	–	hKv1.1: IC50 [pM], block of K+ current, whole cell patch clamp [1]: 160 pM; hKv1.3: IC50 [pM], block of K+ current, whole cell patch clamp [2]: 39 pM; selectivity ratio hKv1.1/hKv1.3 (IC50 on hKv1.1 over IC50 on hKv1.3) [2]: 4 fold
Fc-L10-ShK[2-35] (CHO-derived) (Fc fusion)	0.115 nM	–	–	–
OSK1 analogue E16K, K20D (peptide)	–	1.32 nM	1.58 nM	–
Fc-L5-ShK[2-35] (Fc fusion)	0.1 nM	–	–	–
OSK1 (native Orthochirus scrobiculosus toxin peptide)	–	–	–	Kv1.3 Selectivity (=Kv1.1/Kv.3 IC50) [3]: 5 fold
GGGGS-Osk1 (peptide)	–	2.2 nM	1.36 nM	–
synthetic OSK1 toxin peptide	0.039 nM	–	–	–
20k PEG-ShK (peptide)	–	0.065 nM	0.046 nM	–
20k PEG-OSK1[Ala29, 1Nal34] (peptide)	–	0.081 nM	0.049 nM	–
B1	–	–	–	IC50 of block of the outward potassium current, whole cell patch clamp [4]: 0.049 nM
